Molecular target: His6-p97 WT (human, UniProt P55072 1-806)
Assay: SPR

His6-p97 WT, sequence (P55072 whole entry): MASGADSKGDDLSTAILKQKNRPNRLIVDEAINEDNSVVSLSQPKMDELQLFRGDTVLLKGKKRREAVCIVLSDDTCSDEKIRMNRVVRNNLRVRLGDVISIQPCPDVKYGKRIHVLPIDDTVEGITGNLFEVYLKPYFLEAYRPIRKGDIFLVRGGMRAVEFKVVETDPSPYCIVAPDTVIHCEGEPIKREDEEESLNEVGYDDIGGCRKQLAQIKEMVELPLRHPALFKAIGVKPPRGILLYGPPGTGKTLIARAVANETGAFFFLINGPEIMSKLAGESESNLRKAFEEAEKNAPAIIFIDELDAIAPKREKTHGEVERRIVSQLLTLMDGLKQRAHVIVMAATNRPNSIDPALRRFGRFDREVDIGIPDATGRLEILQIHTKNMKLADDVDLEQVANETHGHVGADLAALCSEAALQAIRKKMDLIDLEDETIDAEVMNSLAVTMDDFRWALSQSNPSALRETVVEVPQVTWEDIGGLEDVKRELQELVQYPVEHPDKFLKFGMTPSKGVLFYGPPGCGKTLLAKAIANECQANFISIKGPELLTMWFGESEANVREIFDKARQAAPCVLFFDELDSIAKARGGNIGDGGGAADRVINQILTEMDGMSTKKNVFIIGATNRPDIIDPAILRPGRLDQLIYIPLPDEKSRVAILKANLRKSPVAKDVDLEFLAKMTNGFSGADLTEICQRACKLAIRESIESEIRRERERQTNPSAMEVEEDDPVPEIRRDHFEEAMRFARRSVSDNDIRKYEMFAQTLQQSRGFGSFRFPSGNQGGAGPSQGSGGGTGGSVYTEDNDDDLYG

- Kd: 10.9 nM
B1: Strep-HA-VCF1 WT (natural protein)
chain: not shown
